Where a chain is given by its changes, count along the chain named. Like-named read-outs stand apart in the source and are kept apart here. One block for each binder: values may come before it.
Columns and labels:
monkey NKp46 protein [1] = target: monkey NKp46 protein (monkey); assay: ELISA on coated monkey NKp46 protein (title 'Cyno NKp46'), HRP anti-human IgG, OD 450 nm
[2] = target: T1, 6506GJ130-1A: Human NKP46 Recombinant Protein (His) (human, UniProt O76036 22-258, limits assumed); assay: ELISA on coated human NKp46 protein (title 'Human NKp46'), HRP anti-human IgG, OD 450 nm [label printed on D00006]]
T1 construct: also called human NKp46 protein; not shown: His tag
T1 sequence (O76036 22-258 limits assumed): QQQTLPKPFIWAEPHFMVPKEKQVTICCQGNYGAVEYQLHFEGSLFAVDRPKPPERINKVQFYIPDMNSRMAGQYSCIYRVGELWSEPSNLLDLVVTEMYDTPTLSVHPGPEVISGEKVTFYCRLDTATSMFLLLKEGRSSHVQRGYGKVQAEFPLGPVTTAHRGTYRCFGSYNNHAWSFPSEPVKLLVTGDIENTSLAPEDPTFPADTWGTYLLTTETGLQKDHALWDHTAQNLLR

[3] = target: T1, 6506GJ130-1A: Human NKP46 Recombinant …; assay: ELISA on coated human NKp46 protein, HRP anti-human IgG, OD 450 nm [label printed at foot of D00002]]
Description: (§1) Human NKp46 protein and monkey NKp46 protein were each added at a concentration of 0.5 μg/mL to a 96-well plate and reacted for 1 hour at 37° C., followed by three washes with an appropriate volume of washing solution (0.05% Tween20, PBS), and then treated with 150 μL of blocking solution (1% BSA, PBS) for 1 hour at 37° C. After washing three times with an appropriate volume of washing solution (0.05% Tween20, PBS), the wells were treated with 3 serial dilutions of 1 μg/mL of anti-human NKp46 antibody at the maximum concentration and reacted for 1 hour at 37° C. […] The degree of binding between antigen and antibody was detected with 3′,5,5′-tetramethylbenzidine solution. Finally, the reaction was stopped by adding 1M HCl, and the absorbance was measured at 450 nm using an ELISA reader (Thermo Fisher Scientific). Four antibodies (1-2, 1-4-2, 1-8, and 1-10) that specifically bind to human NKp46 and monkey NKp46 were selected by the above two binding tests.

monkey NKp46 protein [4] = target: monkey NKp46 protein (monkey); assay: ELISA on coated monkey NKp46 protein (title 'Cyno NKp46'), HRP anti-human IgG, OD 450 nm; remark: listed apart in the source
Description: as §1

Chain of monkey NKp46 protein (monkey) (Q95JB9 22-257): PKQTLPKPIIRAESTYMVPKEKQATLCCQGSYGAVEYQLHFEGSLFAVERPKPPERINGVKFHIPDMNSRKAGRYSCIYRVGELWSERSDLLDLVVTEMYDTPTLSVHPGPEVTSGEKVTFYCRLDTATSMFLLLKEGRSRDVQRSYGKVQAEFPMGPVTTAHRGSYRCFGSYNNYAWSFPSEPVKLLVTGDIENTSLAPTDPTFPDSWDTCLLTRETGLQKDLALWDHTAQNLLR

EC50 (read off the curve) [3]: ~0.2 nM
B4: u6506gj130-1-2 (antibody, human IgG4 S228P, kappa, V domains shown)
VH: EVQLQQSGPELVKPGASVKISCQASGYTFTDYYLNWVKQSHGKSLEWIGDIDPHNGGTSYNQKFKDKATLTVDKSSSTAYMELRSLTSEDSAVYYCARFPIYYSGSSPMDYWGQGTSVTVSS
VL: DIQMTQSPASLSASVGETVTITCRTNENIFSYLAWYQQKQGKSPQLLVYNAKTLAEGVPSRFSGSASGTQFSLKINTLQPEDFGSYYCQHHYGTPYTFGGGTKLEIIR
notes: Beacon screening

EC50 (read off the curve) [3]: ~0.2 nM
EC50 (read off the curve) (monkey NKp46 protein [4]): ~0.2 nM
B5: u6506gj130-1-10 (antibody, human IgG4 S228P, kappa, V domains shown)
VH: QVQLQQPGAELVKPGASVKLSCKASGYIFTSYWMHWVKQRPGQGLEWIGMIHPNSGSTNYNEKFKSKATLTVDKSSSTAYMQLSSLTSEDSAVYYCAREGNWARGYFEYWGQGTTLTVSS
VL: DIKMTQSPSSMYASLGERVTITCKASQDINSYLSWFQQKPGKSPKTLIYRANRLVDGVPSRFSGSGSGQDYSLTISSLEYEDVGMYYCLQYDEFPYTFGGGTKLEIKR
notes: Beacon screening

Further lines, the binder ahead of its results:

B1: 32C9F4 (antibody, human IgG4 S228P, kappa, V domains shown)
VH: QVQLQQPGAELVKPGASVKLSCKASGYTFTSYWMHWVKQRPGQGLEWIGMIHPNSGVTKYNEKFKSKATLTVDKSSSTAYMQLSSLTSEDSAVYFCAGDGRFAYWGQGTLVTVSA
VL: DIQMTQSPSSLSASLGERVSLTCRASQDIGSSLNWLQQEPDGTIKRLIYATSSLDSGVPKRFSGSRSGSDYSLTISSLESEDFVDYYCLQYASSPWTFGGGTKLEIKR
notes: Hybridoma screening; also called 2-2
EC50 (read off the curve) (monkey NKp46 protein [1]): ~0.03 nM
EC50 (read off the curve) [2]: ~0.05 nM

B2: 28E10B12 (antibody, human IgG4 S228P, kappa, V domains shown)
VH: QVQLQQPGAELVKPGASVKLSCKASGYTFTSYWMNWVKQRPGQGLEWIGMIHPNSDITNYNEKFKSQATLTVDKSSSTAYMQLSSLTSEDSAVYYCARHGRFDYWGQGTTLTVSS
VL: B1 VL with S20T, W96F, G100S
notes: Hybridoma screening; also called 2-3
EC50 (read off the curve) (monkey NKp46 protein [1]): ~0.03 nM
EC50 (read off the curve) [2]: ~0.03 nM

B3: 45A10D5 (antibody, human IgG4 S228P, kappa, V domains shown)
VH: B1 VH with V57S, K59N, F95Y, A97V, G98Y
VL: B1 VL with W96F, G100S
notes: Hybridoma screening; also called 2-1
EC50 (read off the curve) (monkey NKp46 protein [1]): ~0.06 nM
EC50 (read off the curve) [2]: ~0.05 nM

Reference: US20260226158A1 (DE NOVO BIOTHERAPEUTICS, published 2026)
